Tests used:
Assay in all cases: purified protein
purified protein [1] = substrate: O=C(O)C1=NCCC1; type: biochemical, Pseudomonas aeruginosa; settings: 0.16 mM NADPH, 50 mM Tris-HCl pH 7.6, 25°C
purified protein [2] = substrate: O=C(O)[C@@H]1C[C@@H](O)CN1; settings: 4HypE reaction (start from t4Hyp as in Figure 1), 50 mM Na-phosphate pH 8.0, 1 mM DTT, 25°C
purified protein [3] = substrate: O=C(O)C1=NCCC1; type: biochemical, Bacillus cereus; settings: 0.16 mM NADPH, 50 mM Tris-HCl pH 7.6, 25°C
purified protein [4] = substrate: O=C(O)C1=NCCC1; type: biochemical, Agrobacterium fabrum; settings: 0.16 mM NADPH, 50 mM Tris-HCl pH 7.6, 25°C

B1: PA1252 (Q9I492) (Pseudomonas aeruginosa PAO1) (protein)
chain: MIRMTLDEVRELAVRILRRHAFSEAHVQAVADTLVAGERDECASHGIWRLLGCIATLKAGKVSADAEPELHDIAPGLLRVDAHGGFSQCAFRLGLPHLLEKARSQGIAAMAVNRCVHFSALWVEVEALTEAGLVALATTPSHAWVAPAGGRKPIFGTNPIAFGWPRPDGPPFVFDFATSAVARGEIQLHERAGKPIPLGWGVDEQGEPTTDASAALRGAMLTFGGHKGSALAAMVELLAGPLIGDLTSAESLAYDEGSRSSPYGGELLIAIDPRRMLGASAEEHLARAETLFEGIVEQGARLPSQRRFEARERSARDGVTIPEALHRELLALLE
Km (purified protein [1]): 410 ± 60 µM
kcat (purified protein [1]): 1.6 ± 0.05 s⁻¹

B2: Avi_0518 (B9JQV3) (Allorhizobium ampelinum S4) (protein)
chain: MRWKRMMQLLDVHCEGEIGKVAIGGVPKIPGDTVADQLHWLNTDPKGRELRHFLVLEPRGAPIGSVNLLLPAKDSRADAAFIILQPDQAHASSGSNSICVTTALLESGMIEMQEPETVVMLETAAGLVKAVAQCRDGHCDSVTLTMVPSFVHELDAQIATESWGEIRFDLAYGGVFYALVDVRQLGLTIEPGNARRLVEAGMLLKGEINQRIQVVHPDIPAISGVAYVMFRDEDPDGAVRTCTTMWPGRVDRSPCGTGNSANLATLHARGRVKPGDSFLSRSIIGSQFTVGLQGLTTVAGRSAVIPTITGRGFTYGIHQVALDAFDPLGGGFVLTDVWGAAAETIKI
Km (purified protein [2]): 5600 ± 500 µM

B3: BC_0906 (Q81HB0) (Bacillus cereus ATCC 14579) (protein)
chain: MLVISANEQRNLVNMNEVIEYAALALKEFSAERTITPIRGSLPFANEQNTALIMPSVAEGLEALGVKIVTVVPQNKQIGKKTINGIVMLSDFQAGEPLALLEGSYLTMIRTGALSGVATKYLARHNAKTLCIIGTGEQAKGIAEAIFAVRDIEKVILYNRTEEKAYAFAQYIQEKFGKPAYVYKDPNEAVREADIIVTTTNATTPVFSEILQKGVHVNAVGSFRPSMQELPSHAIAKANKVVVESKEAALDETGDLQVPIKEGLFKANAIHAELGQIISGEKAGRENDEEITIFKSVGLAVVDIIVAKYLYERALEQGVGNKIEF
Km (purified protein [3]): 470 ± 100 µM
kcat (purified protein [3]): 15 ± 1 s⁻¹

B4: Atu4676 (Q7CVK1) (Agrobacterium fabrum str. C58) (protein)
chain: MSDTTTLTIEALFQRVESIFLRAGLNAVQSGALARVITAGERDACKSHGIYRIEGALRTVKAAKVKPDAIPEVAEDDGTAIVKVNAMGGFANPAFELGLPALAERAKRLGLAALVINDCTHFSALWPEVEGLTSNGLAGLVMCPSYSTVAPTGGTKPLLGTNPFAFGWPRKDTSPYVFDFATSVAARGEIELHRRARKSLPEGWAVDADGNPTTDPEAALAGAMLPFGGHKGSAIGTMIELLAGIMIGDLTSPEVLDYLGTTTLAPFHGELIVAFSPEAFAKGRPGDPFQRAEVLFEAIIGQGARLPSGRRFAARAKSESEGITLTAAEMAGLDRLLEKGLDAVS
Km (purified protein [4]): 330 ± 40 µM
kcat (purified protein [4]): 32 ± 1 s⁻¹

Source: publication PMC4113996, “Prediction and characterization of enzymatic activities guided by sequence similarity and genome neighborhood networks” (eLife, 2014)
